The Kd is the free concentration of one partner at which half of the binding sites on the other are occupied at equilibrium, for simple one-to-one binding. The term IC50 denotes the midpoint of a concentration-inhibition curve. The koff is a measure of how fast the partners let go of each other. One may read the kon as the second-order rate constant of association.

Consider five molecules from US20170340735A1 (published 2017).

Changes are numbered by the printed parent chain.

T1: human TIGIT on the cell surface (human, UniProt Q495A1 22-244)
T1 sequence: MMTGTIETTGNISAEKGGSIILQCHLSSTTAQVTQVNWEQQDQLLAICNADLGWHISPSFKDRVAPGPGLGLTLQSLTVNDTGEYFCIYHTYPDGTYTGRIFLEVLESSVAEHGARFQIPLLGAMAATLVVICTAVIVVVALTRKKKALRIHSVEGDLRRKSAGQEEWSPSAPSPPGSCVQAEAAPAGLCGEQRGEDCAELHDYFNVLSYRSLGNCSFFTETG

T2: human PVRL4-His (human, UniProt Q96NY8 32-349)
T2 construct: also called Nectin-4; not shown: His tag
T2 sequence (looked up): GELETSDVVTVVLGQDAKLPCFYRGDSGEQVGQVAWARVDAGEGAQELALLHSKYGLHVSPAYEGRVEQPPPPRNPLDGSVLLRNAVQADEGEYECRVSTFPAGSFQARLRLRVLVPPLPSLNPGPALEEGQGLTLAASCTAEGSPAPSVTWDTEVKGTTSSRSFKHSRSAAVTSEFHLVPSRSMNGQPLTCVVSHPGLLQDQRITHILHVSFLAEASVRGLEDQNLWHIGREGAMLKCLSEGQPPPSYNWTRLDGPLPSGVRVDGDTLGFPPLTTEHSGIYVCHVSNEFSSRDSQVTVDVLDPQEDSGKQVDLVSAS

T3: recombinant monomeric human TIGIT-His (human, UniProt Q495A1 22-141)
T3 construct: also called hTIGIT; not shown: His tag
T3 sequence: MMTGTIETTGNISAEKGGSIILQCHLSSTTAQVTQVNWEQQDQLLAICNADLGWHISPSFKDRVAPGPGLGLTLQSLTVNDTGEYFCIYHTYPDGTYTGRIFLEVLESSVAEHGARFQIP

B1: MAB3-IgG4 (antibody, V domains shown)
VH: QLQLQESGPGLVKPSETLSLTCTVSGGSISSTSHYWGWIRQPPGKGLEWIGSIYYSGSTFYNPSLKSRVTISVDTSKNQFSLKLSSVTAADTAVYYCARDANYYGSAWAFDPWGQGTLVTVSS
VL: EIVLTQSPATLSLSPGERATLSCRASQSVSSYLAWYQQKPGQAPRLLIYDASNRATGIPARFSGSGSGTDFTLTISSLEPEDFAVYYCQQHFNLPTFGGGTKVEIKR
B2: MAB2-IgG4 (antibody, V domains shown)
VH: B1 VH with T32S, S33K, H34Y
VL: B1 VL
B3: MAB1-IgG4 (antibody, V domains shown)
VH: B1 VH with S30T, T32S, H34Y, S58A
VL: B1 VL
B4: MAB4-IgG4 (antibody, V domains shown)
VH: B1 VH with S106G
VL: B1 VL
B5: MAB5-IgG4 (antibody, V domains shown)
VH: B1 VH with S67G
VL: B1 VL

T4 sequence (chain, as listed by the source limits assumed): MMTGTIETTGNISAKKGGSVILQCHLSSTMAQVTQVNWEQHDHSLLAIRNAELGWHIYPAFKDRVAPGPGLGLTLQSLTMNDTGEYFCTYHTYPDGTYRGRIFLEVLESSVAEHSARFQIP

The first experiment concerns the target T1, human TIGIT on the cell surface. The experiment in a line: cell-based or functional assay.
Regarding B1, the “Average EC50, IL-2 production, human TIGIT Jurkat/anti-CD3 HT-1080 co-culture assay” value amounted to 0.33 nM.

For the molecule B2, the “Average EC50, IL-2 production, human TIGIT Jurkat/anti-CD3 HT-1080 co-culture assay” value is 0.31 nM.

As for B3, the “Average EC50, IL-2 production, human TIGIT Jurkat/anti-CD3 HT-1080 co-culture assay” value is 0.22 nM.

As for B4, the “Average EC50, IL-2 production, human TIGIT Jurkat/anti-CD3 HT-1080 co-culture assay” value turned out to be 0.34 nM.

B5: the “Average EC50, IL-2 production, human TIGIT Jurkat/anti-CD3 HT-1080 co-culture assay” value is 0.34 nM.

The target of a further experiment is T2, human PVRL4-His. The experiment in a line: BLI, antibody on AHC sensor, human PVRL4-His in solution. The method, then:
The BLI analysis was performed at 30° C. using 1× kinetics buffer as assay buffer. AHC sensors were first presoaked in assay buffer for greater than 5 minutes. Antibody (5 μg/mL) was captured on the sensor for 300 seconds. Sensors were then dipped in assay buffer for 120 seconds to establish a baseline before measuring binding to human PVRL4-His protein. Sensors were then dipped into human PVRL4-His (200 nM in assay buffer) for 200 seconds to measure association. Dissociation of PVRL4 was then measured by dipping sensors into assay buffer for 200 seconds. Results were analyzed using Octet® Data Analysis Software Version 8.2.0.7.
(In general: Biolayer interferometry detects binding as a change in optical thickness at a sensor tip.)
Regarding B1, the binding result is “no binding (tested: 200 nM)”.

As for B2, the binding result is “no binding (tested: 200 nM)”.

Take B3: the binding result is “no binding (tested: 200 nM)”.

On to B4, for which the binding result was “no binding (tested: 200 nM)”.

As for B5, the binding result is reported as “no binding (tested: 200 nM)”.

Another experiment deals with T3, recombinant monomeric human TIGIT-His. The experiment can be described thus: MSD-SET solution equilibrium titration, monomeric antigen. The method, then: (§1) See Estep et al., supra, incorporated by reference in its entirety. Briefly, solution equilibrium titrations (SET) were performed in PBS+0.1% IgG-Free BSA (PBSF) with antigen (TIGIT monomer) held constant at 10-100 pM and incubated with 3- to 5-fold serial dilutions of Fab or mAbs starting at 10 pM-10 nM. Antibodies (20 nM in PBS) were coated onto standard bind MSD-ECL plates overnight at 4° C. or at room temperature for 30 min. Plates were then blocked by BSA for 30 min with shaking at 700 rpm, followed by three washes with wash buffer (PBSF+0.05% Tween 20). SET samples were applied and incubated on the plates for 150s with shaking at 700 rpm followed by one wash. Antigen captured on a plate was detected with 250 ng/mL sulfotag-labeled streptavidin in PBSF by incubation on the plate for 3 min. The plates were washed three times with wash buffer and then read on the MSD Sector Imager 2400 instrument using 1× Read Buffer T with surfactant. The percent free antigen was plotted as a function of titrated antibody in Prism and fit to a quadratic equation to extract the KD. To improve throughput, liquid handling robots were used throughout MSD-SET experiments, including SET sample preparation.
As to B1, the Kd is 8.1 pM.

Regarding B2, the equilibrium dissociation constant (Kd) amounted to 25 pM.

Consider B3, for which the Kd turned out to be 54 pM.

As to B4, the Kd came out at 5 pM.

Turning to B5, the Kd stood at 4.9 pM.

A further experiment addresses T4, recombinant monomeric cynomolgus monkey TIGIT-His (cynomolgus monkey).
T4 construct: also called Cyno TIGIT His; cTIGIT; not shown: His tag
The description is as above. How it is done: as §1
As to B1, the dissociation constant Kd is 0.035 nM.

Regarding B2, the Kd was determined as 0.23 nM.

With B3, the Kd came to 0.32 nM.

For the molecule B4, the Kd is 0.015 nM.

On to B5, for which the Kd stood at 0.046 nM.

A further experiment concerns the target T3, recombinant monomeric human TIGIT-His. The experiment can be described thus: BLI (ForteBio), IgG on AHQ sensor, 100 nM monomeric antigen, 1:1 model. The method, then: (§2) Quantitative binding of antibodies to recombinant monomeric human, mouse (SEQ ID NO: 3), cynomolgus monkey TIGIT was measured using biolayer interferometry (BLI) with a FORTEBIO®. […] FORTEBIO affinity measurements were performed by loading IgGs on-line onto AHQ sensors. Sensors were equilibrated off-line in assay buffer for 30 min and then monitored on-line for 60 seconds for baseline establishment. Sensors with loaded IgGs were exposed to a single concentration of antigen (100 nM) for 3 minutes. Afterwards they were transferred to assay buffer for 3 minutes for off-rate measurement. Kinetics were analyzed using the 1:1 binding model.
For B1, the Kd was determined as 0.332 nM.

As to B2, the Kd amounted to 0.457 nM.

On to B3, for which the Kd worked out at 0.524 nM.

B4: the Kd is 0.246 nM.

For B5, the Kd is 0.196 nM.

Another experiment addresses T4, recombinant monomeric cynomolgus monkey …. The description is as above. The method, then: as §2
With B1, the Kd was 0.802 nM.

Consider B2, for which the dissociation constant (Kd) worked out at 1.57 nM.

Consider B3, for which the Kd turned out to be 2.64 nM.

Take B4: the Kd is 0.369 nM.

With B5, the Kd was determined as 0.898 nM.

For a further experiment, the target named is T1, human TIGIT on the cell surface. The experiment can be described thus: flow cytometry, antibody titrated against labeled PVR-Fc binding to human TIGIT Jurkat cells. The method, then:
(§3) Quantitative ligand blocking studies were conducted by using a cell surface TIGIT binding assay.
In general terms: Flow cytometry measures light scatter and fluorescence of single cells or particles in a stream.
B1 displayed a half-maximal inhibitory concentration (IC50) of 1.6 nM.

On to B2, for which the IC50 came out at 2.3 nM.

In the case of B3, the IC50 stood at 2.2 nM.

B4 came in with an IC50 of 1.9 nM.

Take B5: the concentration for half-maximal inhibition (IC50) came out at 1.7 nM.

The target is the same in a further experiment. The experiment can be described thus: flow cytometry, antibody titrated against labeled PVRL2-Fc binding to human TIGIT Jurkat cells. The method, then:
as §3
With B1, the IC50 amounted to 1.2 nM.

As for B2, the IC50 turned out to be 1.3 nM.

In turn, B3 had an IC50 of 1.4 nM.

Molecule B4 registered an IC50 of 1.6 nM.

B5: the IC50 turned out to be 1.4 nM.

A further experiment concerns the target T3, recombinant monomeric human TIGIT-His. The experiment can be described thus: BLI (Octet QKe), antibody on AHC sensor, several concentrations of human TIGIT-His, 1:1 global fit, average. How it is done:
A strategy of capturing anti-TIGIT antibodies on sensors following association/dissociation of monomeric TIGIT proteins was used to avoid avidity effects in the assay. The BLI analysis was performed at 29° C. using 1× kinetics buffer (ForteBio) as assay buffer. Anti-human IgG Fc capture (AHC) biosensors (ForteBio) were first presoaked in assay buffer for over five minutes. Anti-TIGIT antibody (5 μg/mL) was captured on the sensor for 300 seconds. Sensors were then dipped in assay buffer for 120 seconds to establish a baseline before measuring binding to each TIGIT protein. […] Dissociation of TIGIT was measured by dipping the sensors into assay buffer for 600, 1200, or 1800 seconds, depending on the experiment (600 seconds was only used for mouse TIGIT-His). Agitation at all steps was 1000 rpm.
Kinetic parameters were generated with Octet® Data Analysis Software Version 8.2.0.7 using reference subtraction, dissociation based inter-step correction, 1-to-1 binding model, and global fit (Rₘₐₓ unlinked by sensor).
B2: the Kd was 0.71 nM, the off-rate (koff) came to 0.00023 s⁻¹ and the kon was found to be 320000 M⁻¹ s⁻¹.

As to B4, the Kd came out at 0.081 nM, the dissociation rate constant (koff) stood at 6.3e-05 s⁻¹ and the kon was found to be 700000 M⁻¹ s⁻¹.

As to B5, the Kd is 0.19 nM, the off-rate (koff) was 0.00014 s⁻¹ and the kon came out at 770000 M⁻¹ s⁻¹.
